Source: the nanobody polyreactivity screen of Harvey et al. (2022)

Assay: yeast display, Sf9 membrane polyspecificity reagent, FACS + sequencing; frameworks hold sequencing errors
Method in brief: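 Genes from sorted yeast were amplified by colony PCR, read by MiSeq 2 × 250 sequencing and filtered on CDR length. These cells carried a synthetic nanobody library in Saccharomyces cerevisiae BJ5465 and were sorted by FACS into low and high (top ~1%) gates on anti-HA and streptavidin fluorescence. Polyreactivity is labelled according to the gate of origin.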

Row | Sequence | polyreactivity (PSR sort gate)
1 | QVQLVESGGGLVQAGGSLRLSCDASGRTFGNNAMGWYRQAPGKERELVASISSSGGTNYADSVKGRFTISRDNAKNTVYVQLNSLKPEDTAVYYCAKRKFTARQRYNYWGQGTQVTVSS | high polyreactivity
2 | QVQLVESGGGLVQAGGSLRLSCDASGRTFIGYAMGWYRQAPGKERELVAAINWSGARTYYADSVKGRFTISRDNAKNTVYLQMNSLKPEDTAVYYCAAVPVTSQTKYGYWGQGTQVTVSS | high polyreactivity
3 | QVQLVESGGGLVQAGGSLRLSCDASGRTFLRNTMGWYRQAPGKERELVAAISRSGATTYYADSVKGRFTISRDNAKNTVYLQMNTLKPEDTADYYCAAAYRGREVEYNSWGQGTQVTVSS | high polyreactivity
4 | QVQLVESGGGLVQAGGSLRLSCDASGSIFDLNAMGWYRQAPGKERELVAAISSGGGTNYADSVKGRFTISRDNAKNTVYLQMYSLKPEDTAVYYCAVGSTRDGVYLGQGTQVTVSS | high polyreactivity
5 | QVQLVESGGGLVQAGGSLRLSCDASGSIFVKNAMGWYRQAPGKERELVAVITIRTATTYYADSVKGRFTISRDNAKNTVYLQMNSLKPEDTAVYYCASAKRQRGYLQREGNYWGQGTQVTVSS | low polyreactivity
6 | QVQLVESGGGLVQAGGSLRLSCDASGSIFYPYAMGWYRQAPGKERELVASISWSGGSTRYADSVKGRFTISRDHAKNTVYLQMNSLKPEDTAVYYCAARYILSKYGSGVRYYYWGQGTQVTVSS | high polyreactivity
7 | QVQLVESGGGLVQAGGSLRLSCDASGSIFYYNAMGWYRQAPGKERELVAAISVSGGSTYYADSVKGRFTISRDNAKNTVYLQMNSLKPEDTAVYYCAAEWLYYYWLPGRADYLEYDYWGQGTQVTVSS | low polyreactivity
8 | QVQLVESGGGLVQAGGSLRLSCDASGSISIGYTMGWYRQAPGKERELVATISWSGGNTYYADSVKGRFTISRDNAKNTVYLQMNSLKPEDTAVYYCAARWYYYPLLYDYWGQGTQVTVSS | low polyreactivity
9 | QVQLVESGGGLVQAGGSLRLSCDASGSTFASYAMGWYRQAPGKERELVAAIRWSGGTTYYADSVKGRFTISRDNAKNTVYLLMNSLKTEDTAVYYCNADRYYLYYYWGQGTQVTVSS | low polyreactivity
10 | QVQLVESGGGLVQAGGSLRLSCDASGSTFPKYAMGWYRQAHGKERELVAAITSSGGRTFYADSVKGRFTISRDNAKNTVYLQMNSLKPEDTAVYYCAAYYYSWSGAFIYDYWGQGTQVTVSS | high polyreactivity
11 | QVQLVESGGGLVQAGGSLRLSCDASGSTFSYYAMGGYRQAPGKERELVAAISGRGGSTYYADSVKGRFTISRDNAKNTVYLQMNSLKPEDTAVYYCAKGRLYTAYGLYSWGQGTQVTVSS | high polyreactivity
12 | QVQLVESGGGLVQAGGSLRLSCDASGSTFVGNSMGWYRPAPGKERELVAALTQSGGNTFYADSVKGRFTISRDYAKNTVYLQINSLKPEDTAVYYCAATVSNGVKLDGPARVDLDYWGQGTQVTVSS | low polyreactivity
13 | QVQLVESGGGLVQAGGSLRLSCDASGSTFWYYAMGWYRQAPGKERELVASITSSGSTNYADSVKGRFTISRDNAKNTVYLQMNSLKPEDTAVYYCNRVSKYERLSRYGYYGYYYWGQGTQVTVSS | high polyreactivity
14 | QVQLVESGGGLVQAGGSLRLSCDASGSTFYYYAMGWYRQAPGKERELVDSISFSGGSTYYADSVKGRFTISRDNAKNTVYLQMNSLKPEDTAVYYCGYYYWGQGTQVTVSS | low polyreactivity
15 | QVQLVESGGGLVQAGGSLRLSCDASGSTSPGYAMGWYRQAPGKERELVAAITFRGTRTYYADSVKGRFTISRDNAKNTVYLQINSLKPEDTAVYYCNVVGYGPNRGRVDYWGQGTQVTVSS | high polyreactivity
16 | QVQLVESGGGLVQAGGSLRLSCDASGTTFVFNAMGWYRHAPGKERELVAAISFSSDTTHYADSVKGRFTISRDNAKNTVYLQMNSLKPEDTAVYYCAADFVGYARNWYYFCGQGTQVTVSS | low polyreactivity
17 | QVQLVESGGGLVQAGGSLRLSCDASGYIFNYAMGWYRQAPGKERELVPAISRRGGSTYYADSVKGRFTISRDNAKNTVYLQMNSLKPEDTSVYYCAADRFRRLHYWTYDYWGKGTQVTVSS | high polyreactivity
18 | QVQLVESGGGLVQAGGSLRLSCDATGSIISYNTMGWYRQAPGKERELVAAITWGGRTYYADSVKGRFTISRDNAKNTVYLQMNSLKPEDTAVYYCAKRIRGGAPTYDYWGQRTQVTVSS | low polyreactivity
19 | QVQLVESGGGLVQAGGSLRLSCDAYGSTFERYVMGWYCQRLGKKGSWLPVLNHNGGSTYYADSVKGRFTISRDNAKNTVYLQMNSLKPEVTAVYYCAPSFRTVLDDGYWGQGSQVTVSS | low polyreactivity
20 | QVQLVESGGGLVQAGGSLRLSCDGSGSIISAYTMEWYRQAPGKEREYVAAIRWSGDSTYYSDSVKGRFTISRDNAKNTVYLQMNSLKPEDTAVYYCAARDLWFPRYSSRYYYWGQGTQVTVSS | high polyreactivity
21 | QVQLVESGGGLVQAGGSLRLSCGAAGSIFAPYALGWYRQAPGKERELVAAISWTGGRTYYADSVKGRFTISRDNAKNTVYLQRNSLKPEDTAVYYCAAAYYGTRPYGYWGQGSQVTVSS | high polyreactivity
22 | QVQLVESGGGLVQAGGSLRLSCGASGIIFASNGMGWYRQAPGKERELVAAISSGGSTNYADSVKGRFTISRDNAKNTVYLQMNSLKPEDTSVYYCAADRWYREYDYWGQATQVTVSS | low polyreactivity

Row | Sequence | polyreactivity (PSR sort gate)
23 | QVQLVESGGGLVQAGGSLRLSCGASGITFVYYTMGWYRQAPGKERELVAAISKNGGSTYYADSVKGRFTISRDNAKNTVYLQMNSLKPEYTAFSYCAAEEGYRWVRYNYWGQGTQVTVSS | high polyreactivity
24 | QVQLVESGGGLVQAGGSLRLSCGASGRIFNSNAMGWYRQAPGKERELVAASSWSGGTSYYADSVKGRFTISRDNAKNTVYLQLNSLKPEDTAVYYCNAVGLHWWPGDYWGQGTQVTVSS | low polyreactivity
25 | QVQLVESGGGLVQAGGSLRLSCGASGRTFPVYAMGWYRQAPGKERELVADISDGGSTNYADSVKGRFTISRDNAKNTVDLQMNSLKPEDTAVYYCNATTFAFSPSLKGAYGYWGQGTQVTVST | low polyreactivity
26 | QVQLVESGGGLVQAGGSLRLSCGASGRTFQFYAMGWYRQAPGKERELVAAISRSSGSTTYADSVKGRFTISRDNAKNTVYLQMNSLKPEDTAVYYCAARRKGKARVPQYDYWGQGTQVTVSS | high polyreactivity
27 | QVQLVESGGGLVQAGGSLRLSCGASGRTFRRNAMGRYRQAPGKERELVAAIRWSSGSTYYADSVKGRFTISRDNAKNTVYLQMNSLKPEDTAVYYCAKRQWGGRESFDYWGQGTQVTVSS | low polyreactivity
28 | QVQLVESGGGLVQAGGSLRLSCGASGSTFYGYAMGWYRQAPGTEREVVAAISSGGSTYYADSVKGRFTISRDNAKNTVYLQMNSLKPEDTAVYYCDAVGYFWITNHKDYYWGQGTQVTVSS | high polyreactivity
29 | QVQLVESGGGLVQAGGSLRLSCGASGSTFYYYTMGWYRQAPGKERELVAAISFIGGSTYYADSVKGRFTISRDNAKNTVYLQMNSLKPEDTAVYYCAAEFYGLVSLSFSYDYWGQGTQVTVSS | low polyreactivity
30 | QVQLVESGGGLVQAGGSLRLSCHASGSTFTFNAMGWYRQAPGKERELVADITSGGRTNYADSVKGRFTISRDNAKNTVYLQMNSLKPEDTAVYYCAARWSAHEYPGYDSWGQGTQVTVSS | low polyreactivity
31 | QVQLVESGGGLVQAGGSLRLSCPASGFTFVTNAMGWYRQAPGKERELVAAISKSGDRTYYADSVKGRFTISRDNAKNTVYLQMNSLKPEDTAVYYCAAGNSNWGQGTQVTVSS | high polyreactivity
32 | QVQLVESGGGLVQAGGSLRLSCPASGLIFRSYAMGRYRQAPGKERELVARISIRGGSTYYADSVKGRFTISRDNAKNTVYLQMNSLKPEDTAVYYCAAVGYLGGYRYDYWGQGTQVTVSS | high polyreactivity
33 | QVQLVESGGGLVQAGGSLRLSCPASGRIFTGYAMGWYRQSPGKERELVASISDSGASTYYADSVKGRFTISRDNAKNTVYLQMNSLKPEDTAVYYCAADWTLDTSYGYYADDFWGQGTQVTVSS | low polyreactivity
34 | QVQLVESGGGLVQAGGSLRLSCPASGRTFRWYAMGWYRQAPGKERELVAAISQSGGSTYYAVSVKGRFTISRDNAKNTVYLQMNSLKPEDTAVYYFNAYPPYGGYAYGRGDYWGQGTQVTVSS | high polyreactivity
35 | QVQLVESGGGLVQAGGSLRLSCPASGRTIEGYAMGWYRQATGKERELVAAISRRGGSTYYADSVKGRFTISRDNAKNTVFLQMNSLKPEDTAVYYCAARDASTGAVRYYYWGQGTQVTVSS | high polyreactivity
36 | QVQLVESGGGLVQAGGSLRLSCPASGRTMVLNMGCYRHAPGKERELVATINSGGSTYYADSVKGRFTISRDNAKNTVYLQMNSLKPEDTAVYYCAVLSSDGKFDYWGQGTQVTVSS | low polyreactivity
37 | QVQLVESGGGLVQAGGSLRLSCPASGSIFDYYAMGWYRQPPGKEREMVAAINISGGDTYYADSVKGRFTISRDNAKNTVYLQMNSLKPEDTAVYYCAADWVTWWFSRVGWDYGYWGQGTQVTVSS | low polyreactivity
38 | QVQLVESGGGLVQAGGSLRLSCPASGSIFNKNAMGWYRQAPGKERELVAAISSGGSTYYADSVKGRFTISRDNAKNTVYLQMNSLKPEDTAVYYCARGASFYQKFYYWGQGTQVTVSS | high polyreactivity
39 | QVQLVESGGGLVQAGGSLRLSCPASGSIFPHYAMGWYRQAPGKERELVAAISRSGTSTYYADSVKGRFTISRDNAKNTVYLQMNSLKPEDTAVYYCNAYQVYTRTYGYWGQGTQVTVSS | high polyreactivity
40 | QVQLVESGGGLVQAGGSLRLSCPASGSIFSLNAMGWYRQAPGKERELVAGISWSGGSTYYADSVKGRFTISRDNAKNTVYLQMNSLKPEDTAVYYCAARRYYPYISSGPYYYWGQGTQVTVSS | high polyreactivity
41 | QVQLVESGGGLVQAGGSLRLSCPASGSILYYYTMGWYRQAPGKERELVAAITYSGGSSYYADSVKGRFTISRDNAKNTVYLQMNSLKPEDTAVYYCAAAHSNRGVRKWEPLYFWGQRTQVTVSS | low polyreactivity
42 | QVQLVESGGGLVQAGGSLRLSCPASGSTFARNAMGWSRQAPGKEREFVASIRWGGGSTYYADSVKARFTISRDNAKNTVYLQMNSLKAEDTAVYYCATRGWSKHLFGGYTQYYYWGQGTQVTVSS | high polyreactivity
43 | QVQLVESGGGLVQAGGSLRLSCPASGSTFVKNAMGWYRQAPGKERELVAAITARGGSTFYADSVKGRFTISRDNAKNTVYLQMISLTPEDTSVYYCADNGPRTYRLKDDYWGQGTQVTVSS | high polyreactivity
